# Data as given in publication PMC4666614, “Identification of New Regions in HIV-1 gp120 Variable 2 and 3 Loops that Bind to α4β7 Integrin Receptor” (PLoS ONE, 2015).
# Target: α4β7 integrin receptor on RPMI8866 cells (human (endogenous in RPMI8866)) (UniProt P13612)
# Sequence (P13612 34-1032, chain 1 of 2): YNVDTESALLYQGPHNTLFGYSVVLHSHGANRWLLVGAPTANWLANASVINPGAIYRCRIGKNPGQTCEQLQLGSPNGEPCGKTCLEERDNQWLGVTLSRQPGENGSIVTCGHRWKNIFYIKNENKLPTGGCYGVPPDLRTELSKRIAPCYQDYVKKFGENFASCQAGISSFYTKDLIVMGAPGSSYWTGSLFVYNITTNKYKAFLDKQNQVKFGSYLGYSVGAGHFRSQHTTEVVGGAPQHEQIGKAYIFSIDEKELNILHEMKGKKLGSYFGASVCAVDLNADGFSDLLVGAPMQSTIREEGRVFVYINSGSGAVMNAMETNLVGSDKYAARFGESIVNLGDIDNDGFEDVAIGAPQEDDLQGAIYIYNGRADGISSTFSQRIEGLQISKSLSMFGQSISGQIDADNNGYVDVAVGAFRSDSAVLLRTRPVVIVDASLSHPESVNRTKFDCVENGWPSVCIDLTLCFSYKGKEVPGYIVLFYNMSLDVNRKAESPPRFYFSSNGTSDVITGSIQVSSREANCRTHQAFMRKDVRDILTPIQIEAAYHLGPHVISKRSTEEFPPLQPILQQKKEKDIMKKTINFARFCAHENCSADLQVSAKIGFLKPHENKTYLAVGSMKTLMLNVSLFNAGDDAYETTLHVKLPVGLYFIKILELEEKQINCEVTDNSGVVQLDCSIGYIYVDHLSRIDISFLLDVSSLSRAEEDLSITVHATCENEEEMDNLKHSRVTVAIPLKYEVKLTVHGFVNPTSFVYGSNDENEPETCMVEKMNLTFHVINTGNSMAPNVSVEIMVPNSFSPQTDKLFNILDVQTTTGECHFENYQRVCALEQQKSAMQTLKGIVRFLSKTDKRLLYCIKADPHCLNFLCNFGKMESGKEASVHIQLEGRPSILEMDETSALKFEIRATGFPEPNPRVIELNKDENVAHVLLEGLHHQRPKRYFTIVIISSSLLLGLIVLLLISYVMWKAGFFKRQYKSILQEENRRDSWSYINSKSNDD
# Sequence (P26010 20-798, chain 2 of 2, further chain): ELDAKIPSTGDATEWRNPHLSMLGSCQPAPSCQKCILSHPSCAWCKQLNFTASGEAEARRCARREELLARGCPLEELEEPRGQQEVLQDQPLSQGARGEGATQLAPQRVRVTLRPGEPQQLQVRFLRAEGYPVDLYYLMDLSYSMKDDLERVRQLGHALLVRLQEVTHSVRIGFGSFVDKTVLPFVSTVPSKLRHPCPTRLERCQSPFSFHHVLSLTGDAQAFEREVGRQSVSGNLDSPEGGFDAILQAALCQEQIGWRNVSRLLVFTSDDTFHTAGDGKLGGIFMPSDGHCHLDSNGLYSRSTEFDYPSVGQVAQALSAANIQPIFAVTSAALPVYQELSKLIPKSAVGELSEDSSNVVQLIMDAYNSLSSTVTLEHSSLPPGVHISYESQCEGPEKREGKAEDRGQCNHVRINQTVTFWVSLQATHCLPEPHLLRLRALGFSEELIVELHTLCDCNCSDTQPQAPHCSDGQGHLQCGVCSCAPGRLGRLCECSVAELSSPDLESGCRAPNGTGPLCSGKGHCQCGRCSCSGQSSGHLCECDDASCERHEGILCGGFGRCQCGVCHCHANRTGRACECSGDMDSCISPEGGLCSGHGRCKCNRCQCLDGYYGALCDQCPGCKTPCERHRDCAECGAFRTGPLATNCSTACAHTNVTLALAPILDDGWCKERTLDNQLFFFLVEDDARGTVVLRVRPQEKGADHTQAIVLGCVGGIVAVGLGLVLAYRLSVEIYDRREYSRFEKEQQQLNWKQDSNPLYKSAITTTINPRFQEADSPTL
substance,measurement,value
"HIV-1 envelope protein on 92TH023 virions (primary virus, subtype CRF01_AE) (natural protein)",% inhibition of α4β7 binding to MAdCAM-1 at p24 0.75–3 ng/well,25 to 35%
